B1: esterase from Streptomyces diastatochromogenes: estA from Streptomyces diastatochromogenes classified under EC 3.1.1.1 (protein)
chain: MARFRTRLALLGSAAALAAGAVVPAQLAGAQPAAAAADLQWVALGDSYTAGVIRAAGDAIDYPRDGCERTDRSYPQVIERDLYGLFDLTNVSCGAATIENVSDTPQYPIGRHMPPFSEDPDHPFPPVPPQSEAVGPGTDVITVGVGGNTLGFADILTKCQELGGESGGEGTPCKGALGSGIKARLDKVSQGYDRMLTVLHERGPKAKILTVGYPTVIPENTADCGYGDLTKFGTITQGDLAWLRQDVLEPLNKTIEDSAATQEAADFVNLYAPSQGHSVCDADKWVEGILTVSPNQDPQLSFVHPNASGHRNAADHVEEAMLNAIS
modifications: Streptomyces diastatochromogenes
B2: SEQ ID NO: 38: Segniliparus rotundus carboxylate reductase (protein, listed as Segniliparus rotundus)
chain: MTQSHTQGPQASAAHSRLARRAAELLATDPQAAATLPDPEVVRQATRPGLRLAERVDAILSGYADRPALGQRSFQTVKDPITGRSSVELLPTFDTITYRELRERATAIASDLAHHPQAPAKPGDFLASIGFISVDYVAIDIAGVFAGLTAVPLQTGATLATLTAITAETAPTLFAASIEHLPTAVDAVLATPSVRRLLVFDYRAGSDEDREAVEAAKRKIADAGSSVLVDVLDEVIARGKSAPKAPLPPATDAGDDSLSLLIYTSGSTGTPKGAMYPERNVAHFWGGVWAAAFDEDAAPPVPAINITFLPLSHVASRLSLMPTLARGGLMHFVAKSDLSTLFEDLKLARPTNLFLVPRVVEMLYQHYQSELDRRGVQDGTREAEAVKDDLRTGLLGGRILTAGFGSAPLSAELAGFIESLLQIHLVDGYGSTEAGPVWRDGYLVKPPVTDYKLIDVPELGYFSTDSPHPRGELAIKTQTILPGYYKRPETTAEVFDEDGFYLTGDVVAQIGPEQFAYVDRRKNVLKLSQGEFVTLAKLEAAYSSSPLVRQLFVYGSSERSYLLAVIVPTPDALKKFGVGEAAKAALGESLQKIARDEGLQSYEVPRDFIIETDPFTVENGLLSDARKSLRPKLKEHYGERLEAMYKELADGQANELRDIRRGVQQRPTLETVRRAAAAMLGASAAEIKPDAHFTDLGGDSLSALTFSNFLHDLFEVDVPVGVIVSAANTLGSVAEHIDAQLAGGRARPTFATVHGKGSTTIKASDLTLDKFIDEQTLEAAKHLPKPADPPRTVLLTGANGWLGRFLALEWLERLAPAGGKLITIVRGKDAAQAKARLDAAYESGDPKLAGHYQDLAATTLEVLAGDFSEPRLGLDEATWNRLADEVDFISHPGALVNHVLPYNQLFGPNVAGVAEIIKLAITTRIKPVTYLSTVAVAAGVEPSALDEDGDIRTVSAERSVDEGYANGYGNSKWGGEVLLREAHDRTGLPVRVFRSDMILAHQKYTGQVNATDQFTRLVQSLLATGLAPKSFYELDAQGNRQRAHYDGIPVDFTAESITTLGGDGLEGYRSYNVFNPHRDGVGLDEFVDWLIEAGHPITRIDDYDQWLSRFETSLRGLPESKRQASVLPLLHAFARPGPAVDGSPFRNTVFRTDVQKAKIGAEHDIPHLGKALVLKYADDIKQLGLL
modifications: Segniliparus rotundus (strain ATCC BAA-972 / CDC 1076 / CIP 108378 / DSM 44985 / JCM 13578)
notes: Segniliparus rotundus carboxylate reductase

Experiments:
Type in all cases: biochemical
[1] = Esterase activity assay, monomethyl heptanedioate to heptanedioic acid, LC-MS; settings: esterase assays
Method: A nucleotide sequence encoding a C-terminal His-tag may be added to the gene from Bacillus subtilis encoding the esterase of SEQ ID NO: 50 (NCBI Reference Sequence: NP_388108.1) such that a C-terminal HIS tagged esterase is produced. The resulting modified gene is cloned into a pET28b+ expression vector under control of the T7 promoter and the expression vector is transformed into a BL21[DE3] E. coli host. The resulting recombinant E. coli strain can be cultivated at 37° C. in a 500 mL shake flask culture containing 100 mL LB media and antibiotic selection pressure, with shaking at 230 rpm. Each culture is induced overnight at 18° C. using 0.3 mM IPTG.
The pellet from each induced shake flask culture can be harvested via centrifugation. Each pellet is resuspended and lysed via sonication. The cell debris is separated from the supernatant via centrifugation. The esterase can be purified from the supernatant using Ni-affinity chromatography, buffer exchanged and concentrated into 20 mM HEPES buffer (pH=7.5) via ultrafiltration and stored at 4° C.
Enzyme activity assays converting monomethyl heptanedioate to heptanedioic acid are performed in triplicate in a buffer composed of a final concentration of 25 mM Tris-HCl buffer (pH=7.0) and 5 [mM] monomethyl heptanedioic acid. […] The formation of heptanedioic acid can be quantified via LC-MS.

[2] = Carboxylate reductase activity, 7-hydroxyheptanoate to 7-hydroxyheptanal, NADPH consumption at 340 nm; settings: enhanced by gene product of sfp, 20 min, against empty vector control, FIG. 44
[3] = Carboxylate reductase activity, 7-oxoheptanoate to heptanedial, NADPH consumption at 340 nm; settings: enhanced by gene product of sfp, 2 mM substrate, 20 min, against empty vector control, FIG. 46
Method: The N-terminal His-tagged carboxylate reductase of SEQ ID NO: 38 (GenBank Accession No. ADG98140.1) (see Example 4) was assayed using 7-oxoheptanoate as substrate. The enzyme activity assay was performed in triplicate in a buffer composed of a final concentration of 50 mM HEPES buffer (pH=7.5), 2 mM 7-oxoheptanoate, 10 mM MgCl2, 1 mM ATP and 1 mM NADPH. The enzyme activity assay reaction was initiated by adding purified carboxylate reductase and phosphopantetheine transferase or the empty vector control to the assay buffer containing the 7-oxoheptanoate and then incubated at room temperature for 20 min. The consumption of NADPH was monitored by absorbance at 340 nm.

[4] = Carboxylate reductase activity, N7-acetyl-7-aminoheptanoate to N7-acetyl-7-aminoheptanal, NADPH consumption at 340 nm; settings: enhanced by gene product of sfp, 2 mM substrate, 20 min, against empty vector control, FIG. 45
Method: The activity of each of the N-terminal His-tagged carboxylate reductases of SEQ ID NOs: 29 (GenBank Accession No. ABK71854.1), 37 (Genbank Accession No. EIV11143.1), and 38 (GenBank Accession No. ADG98140.1) (see Examples 4) for converting N7-acetyl-7-aminoheptanoate to N7-acetyl-7-aminoheptanal was assayed in triplicate in a buffer composed of a final concentration of 50 mM HEPES buffer (pH=7.5), 2 mM N7-acetyl-7-aminoheptanoate, 10 mM MgCl2, 1 mM ATP, and 1 mM NADPH. The assays were initiated by adding purified carboxylate reductase and phosphopantetheine transferase or the empty vector control to the assay buffer containing the N7-acetyl-7-aminoheptanoate then incubated at room temperature for 20 min. The consumption of NADPH was monitored by absorbance at 340 nm.

[5] = Carboxylate reductase activity, heptanedioate to 7-oxoheptanoate, NADPH consumption at 340 nm; settings: enhanced by gene product of sfp, 2 mM substrate, 20 min, against empty vector control, FIG. 43
Method: A sequence encoding a HIS-tag was added to the genes from Segniliparus rugosus and Segniliparus rotundus that encode the carboxylate reductases of SEQ ID NOs: 31 (GenBank Accession No. EFV11917.1) and 38 (GenBank Accession No. ADG98140.1), respectively, such that N-terminal HIS tagged carboxylate reductases could be produced. Each of the modified genes was cloned into a pET Duet expression vector along with a sfp gene encoding a HIS-tagged phosphopantetheine transferase from Bacillus subtilis, both under the T7 promoter. Each expression vector was transformed into a BL21[DE3] E. coli host and the resulting recombinant E. coli strains were cultivated at 37° C. in a 250 mL shake flask culture containing 50 mL LB media and antibiotic selection pressure, with shaking at 230 rpm. Each culture was induced overnight at 37° C. using an auto-induction media.
The pellet from each induced shake flask culture was harvested via centrifugation. Each pellet was resuspended and lysed via sonication, and the cell debris was separated from the supernatant via centrifugation. […]
Enzyme activity assays (i.e., from heptanedioate to 7-oxoheptanoate) were performed in triplicate in a buffer composed of a final concentration of 50 mM HEPES buffer (pH=7.5), 2 mM heptanedioate, 10 mM MgCl2, 1 mM ATP, and 1 mM NADPH. […] The consumption of NADPH was monitored by absorbance at 340 nm.

Molecule	methyl ester hydrolysis of a C7 compound [1]	acceptance of 7-hydroxyheptanoate as substrate, forming 7-hydroxyheptanal [2]	acceptance of 7-oxoheptanoate as substrate, forming heptanedial [3]	acceptance of N7-acetyl-7-aminoheptanoate as substrate, forming N7-acetyl-7-aminoheptanal [4]	acceptance of heptanedioate as substrate, forming 7-oxoheptanoate [5]
B1	affected the methyl ester hydrolysis of a C7 compound	–	–	–	–
B2	–	accepted 7-hydroxyheptanoate as substrate	accepted 7-oxoheptanoate as substrate	accepted N7-acetyl-7-aminoheptanoate as substrate	accepted heptanedioate as substrate
